Measurements as given in patent publication US8993839B2, “Plant-based production of heterologous proteins” (The Regents of the University of California, priority 2010, dated 2015).

Substrate: Cc1cc(=O)oc2cc(O[C@@H]3O[C@H](CO)[C@@H](O[C@@H]4O[C@H](CO)[C@@H](O)[C@H](O)[C@H]4O)[C@H](O)[C@H]3O)ccc12
Experiment: Michaelis-Menten kinetics of purified E1 (produced in P. pastoris, IMAC purified): cleavage of MUC to cellobiose and MU at various temperatures
Type: biochemical, Acidothermus cellulolyticus
Details: substrate MUC, from Lineweaver-Burk fit
Procedure: Endoglucanase activity assay: Endoglucanase (E1) cleaves methylumbelliferyl-tagged cellobiose (MUC), releasing methylumbelliferone (MU). The MU fluorescence can be measured to determine E1 activity. The relative fluorescence readings of 0.024 to 3.0 μM MU solutions were used to create a linear standard curve. Samples containing E1 were diluted so the concentration of MU released fell within the standard curve. A 60 μl aliquot of diluted supernatant was added to 540 μl of acetate buffer (200 mM acetate, pH 5.5, 100 mM NaCl) and 200 μl of substrate (500 μM MUC). 200 μl of reaction was sampled at time zero and after 30 minutes and added to 800 μl of stop buffer (150 mM glycine, pH 10). The change in fluorescence over time was measured with a VersaFluor fluorometer (Bio-Rad). Fluorescence was converted to an activity, and the specific activity reported in the literature was used to approximate the concentration of E1 in Pichia supernatants. The Michaelis-Menten kinetic parameters of purified endoglucanase were determined. The E1 was produced in P. pastoris and purified by IMAC (immobilized metal affinity chromatography). E1 cleaves the substrate (MUC) into cellobiose and a fluorophore (MU), the concentration of which can be monitored over time. When run at 65° C. and […] substrate, this is the reaction used for the activity assay for E1 in plant extracts and yeast cultures. In this set of experiments, the substrate concentration was varied to determine the kinetic parameters at different temperatures. The rate for a reaction displaying Michaelis-Menten kinetics is shown in Equation 1. The rate depends on the catalysis rate (kcat), the total enzyme concentration (ET), the adsorption/desorption rates which are lumped into the Michaelis-Menten constant (KM), and the substrate concentration (S). At high substrate concentrations (S>>KM), the rate approaches a maximum, and […] is often written as Vmax. The parameters Vmax and KM can be determined experimentally by varying the substrate concentration (S) and measuring the reaction rate (V) at each concentration. Equation 1 can be rearranged as a linear equation (Equation 2). When the reciprocal of the reaction rate (V) is plotted against the reciprocal of the substrate concentration (S), a line fitting the data points can be used to determine KM/Vmax (the slope) and 1/Vmax (y-intercept). A Bradford assay was used to determine the E1 protein concentration in each sample, and this value of ET was used to calculate the kcat values in Table 1. Table 1 depicts a summary of Michaelis-Menten parameters for E1-catalyzed degradation of MUC to MU at various temperatures.

[1] = other: 93 °C, uncertainty approaches 100%, not used further, 93.0 °C

B1: Acidothermus cellulolyticus β-1,4-endoglucanase E1 (P. pastoris-produced) (Acidothermus cellulolyticus 11B) (protein)
chain: AGGGYWHTSGREILDANNVPVRIAGINWFGFETCNYVVHGLWSRDYRSMLDQIKSLGYNTIRLPYSDDILKPGTMPNSINFYQMNQDLQGLTSLQVMDKIVAYAGQIGLRIILDRHRPDCSGQSALWYTSSVSEATWISDLQALAQRYKGNPTVVGFDLHNEPHDPACWGCGDPSIDWRLAAERAGNAVLSVNPNLLIFVEGVQSYNGDSYWWGGNLQGAGQYPVVLNVPNRLVYSAHDYATSVYPQTWFSDPTFPNNMPGIWNKNWGYLFNQNIAPVWLGEFGTTLQSTTDQTWLKTLVQYLRPTAQYGADSFQWTFWSWNPDSGDTGGILKDDWQTVDTVKDGYLAPIKSSIFDPVGASASPSSQPSPSVSPSPSPSPSASRTPTPTPTPTASPTPTLTPTATPTPTASPTPSPTAASGARCTASYQVNSDWGNGFTVTVAVTNSGSVATKTWTVSWTFGGNQTITNSWNAAVTQNGQSVTARNMSYNNVIQPGQNTTFGFQASYTGSNAAPTVACAASHHHHHH
Km (other: 50 °C, 50.0 °C): 59 ± 3 µM
Vmax (other: 50 °C, 50.0 °C): 0.083 µM/min
Km (other: 65 °C, 65.0 °C): 131 ± 4 µM
Vmax (other: 65 °C, 65.0 °C): 0.242 µM/min
Km (other: 80 °C, 80.0 °C): 372 ± 50 µM
Vmax (other: 80 °C, 80.0 °C): 0.523 µM/min
Km [1]: 576 ± 570 µM
Vmax [1]: 0.229 µM/min
